Data as given in patent US20250223366A1 (BIOTHEUS, published 2025).
Residue numbers refer to the chain shown, from its start.

Legend:
[1] = molecular target: T1, EGFR expressed on H292 cells (human, UniProt P00533 25-1210); assay: flow cytometry on H292 cells; antibody titrated, then 100 nM Biotin-h.EGF as the blocked ligand, detected with Streptavidin-FITC
T1 construct: whole, on cells; H292 cells also express c-Met; also called epidermal growth factor receptor
Procedure: (§1) H292 cells, which were human non-small cell lung cancer cells purchased from Procell, were capable of expressing EGFR and c-Met receptors. H292 cells were expanded to a suitable density, digested and detached from the cell culture flask, resuspended to 1×10⁶ cells/ml, added to a 96-well flow plate, 100 μL per well, and centrifuged for later use. The antibody to be tested was subjected to 3-fold dilution with PBS, starting from 200 nM, and the diluted sample was added to the 96-well flow plate with cells, 100 μL/well, and incubated at 25° C. for 60 min. […] Streptavidin-FITC (purchased from Jackson) was diluted 100 times with PBS and added to the plate, 100 µL/well, incubated at 4° C. for 30 min, and washed twice with PBS. 100 μL/well of PBS was added to resuspend the cells, then the cells were detected on a CytoFlex (Beckman) flow cytometer, and the corresponding MFI was calculated.

human c-MET protein = molecular target: T2, human c-MET protein (human, UniProt P08581 25-932); assay: ForteBio (BLI) affinity assay, human c-Met protein
T2 construct: The construct is not described; also called cellular mesenchymal epithelial transition factor (c-Met) antigen
T2 sequence (P08581 25-932 limits assumed): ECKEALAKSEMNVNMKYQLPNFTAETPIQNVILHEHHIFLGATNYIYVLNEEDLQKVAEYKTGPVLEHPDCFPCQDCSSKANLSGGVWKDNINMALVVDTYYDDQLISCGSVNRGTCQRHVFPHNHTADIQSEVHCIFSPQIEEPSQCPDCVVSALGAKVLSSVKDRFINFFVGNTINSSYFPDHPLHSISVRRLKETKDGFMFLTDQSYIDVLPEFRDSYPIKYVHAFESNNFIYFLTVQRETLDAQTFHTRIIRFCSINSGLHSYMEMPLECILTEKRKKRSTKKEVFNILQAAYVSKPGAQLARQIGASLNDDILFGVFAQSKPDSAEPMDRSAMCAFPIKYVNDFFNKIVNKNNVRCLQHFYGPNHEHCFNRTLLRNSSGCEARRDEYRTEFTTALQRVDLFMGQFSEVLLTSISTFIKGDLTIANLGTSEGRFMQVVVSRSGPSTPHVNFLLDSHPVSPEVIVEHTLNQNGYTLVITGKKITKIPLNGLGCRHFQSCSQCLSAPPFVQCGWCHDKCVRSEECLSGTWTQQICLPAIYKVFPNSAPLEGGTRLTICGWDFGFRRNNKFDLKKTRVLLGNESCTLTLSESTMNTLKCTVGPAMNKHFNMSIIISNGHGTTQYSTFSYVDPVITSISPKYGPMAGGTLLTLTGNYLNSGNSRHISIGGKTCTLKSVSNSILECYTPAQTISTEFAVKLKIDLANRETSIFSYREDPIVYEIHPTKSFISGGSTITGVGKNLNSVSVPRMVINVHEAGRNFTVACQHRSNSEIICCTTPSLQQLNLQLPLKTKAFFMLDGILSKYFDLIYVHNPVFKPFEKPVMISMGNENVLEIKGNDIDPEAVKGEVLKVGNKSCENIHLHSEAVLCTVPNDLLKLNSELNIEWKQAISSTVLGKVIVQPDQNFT
Procedure: (§2) After the antibodies were prepared, the ForteBio affinity assay was performed according to the reported method (Estep, P et al., Determination of antibody-antigen affinity and epitope binding based on high-throughput methods. MAbs, 2013.5(2): p. 270-8).

monkey c-MET protein = molecular target: T3, monkey c-MET protein (monkey, UniProt A0A2K5UM36 25-932); assay: ForteBio (BLI) affinity assay, monkey c-Met protein
T3 construct: The construct is not described
T3 sequence (A0A2K5UM36 entry or part of it limits assumed): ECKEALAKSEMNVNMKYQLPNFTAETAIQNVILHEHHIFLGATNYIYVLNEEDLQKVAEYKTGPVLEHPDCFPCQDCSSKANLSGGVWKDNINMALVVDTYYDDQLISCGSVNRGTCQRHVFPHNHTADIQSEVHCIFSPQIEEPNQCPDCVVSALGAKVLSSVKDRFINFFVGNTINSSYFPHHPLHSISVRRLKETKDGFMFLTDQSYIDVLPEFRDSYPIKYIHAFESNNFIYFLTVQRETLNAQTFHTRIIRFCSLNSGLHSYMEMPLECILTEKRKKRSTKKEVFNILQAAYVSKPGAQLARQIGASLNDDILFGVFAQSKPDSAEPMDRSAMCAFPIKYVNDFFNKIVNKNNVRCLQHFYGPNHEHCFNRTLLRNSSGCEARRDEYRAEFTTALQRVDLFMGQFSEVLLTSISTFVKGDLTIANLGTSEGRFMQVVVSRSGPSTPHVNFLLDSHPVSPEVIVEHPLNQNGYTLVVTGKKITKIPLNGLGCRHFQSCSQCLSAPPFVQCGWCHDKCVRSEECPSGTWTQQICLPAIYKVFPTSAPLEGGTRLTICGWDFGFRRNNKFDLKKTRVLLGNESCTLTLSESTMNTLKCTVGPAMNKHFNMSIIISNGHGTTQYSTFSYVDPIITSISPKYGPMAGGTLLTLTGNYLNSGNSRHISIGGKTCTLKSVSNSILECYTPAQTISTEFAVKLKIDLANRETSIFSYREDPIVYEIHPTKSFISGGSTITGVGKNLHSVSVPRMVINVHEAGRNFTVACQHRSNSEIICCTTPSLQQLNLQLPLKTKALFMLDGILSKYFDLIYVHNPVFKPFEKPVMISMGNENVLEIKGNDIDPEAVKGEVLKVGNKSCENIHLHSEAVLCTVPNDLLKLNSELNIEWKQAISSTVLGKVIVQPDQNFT
Procedure: as §2

[2] = molecular target: T1, EGFR expressed on H292 cells; assay: flow cytometry on H292 cells, blocking of biotin-h.EGF (100 nM) binding to EGFR; EGFRxMET-136; blocking of EGF on H292 cells
Procedure: as §1

[3] = molecular target: T1, EGFR expressed on H292 cells; assay: flow cytometry on H292 cells, blocking of biotin-h.EGF (100 nM) binding to EGFR; EGFRxMET-187; blocking of EGF on H292 cells
Procedure: as §1

[4] = molecular target: T4, EGFR and c-Met receptors co-expressed on A375 or H292 cells (human, UniProt P00533 25-1210; P08581 25-1390); assay: flow cytometry, binding to A375 cells (low EGFR and c-Met expression); A375 cells
T4 construct: whole, on cells; Not a complex; also called EGFR and c-Met positive tumor cells
Excerpt: (§3) A375 cells were human malignant melanoma cells and purchased from Addexbio, which were capable of low expression of EGFR and c-Met receptors. H292 cells were human lung adenocarcinoma cells and purchased from procell, which were capable of high expression of EGFR and c-Met receptors. HCC827 cells were human non-small cell lung cancer cells and purchased from the Cell Bank of the Chinese Academy of Sciences, which were capable of high expression of EGFR and c-Met receptors. The expanded cells were adjusted to an appropriate cell density, and added to a 96-well flow plate. After centrifugation, the gradiently diluted samples to be tested were added and incubated at 4° C. for 1 hour. The cells were washed twice with PBS, then a fluorescent secondary antibody, diluted to an appropriate concentration, was added, incubated at 4° C. for 30 min, and washed twice with PBS. The cells were resuspended by PBS, and detected on a CytoFlex flow cytometer, and corresponding MFI was calculated.

[5] = molecular target: T4, EGFR and c-Met receptors co-expressed …; assay: flow cytometry, binding to A375 cells (low EGFR and c-Met expression)
Excerpt: as §3

[6] = molecular target: T4, EGFR and c-Met receptors co-expressed …; assay: flow cytometry, binding to H292 cells (high EGFR and c-Met expression)
Excerpt: as §3

B1: Amivantamab analog (bispecific antibody, human IgG1, kappa)
anti-EGFR heavy chain (EGFR-1 Fc): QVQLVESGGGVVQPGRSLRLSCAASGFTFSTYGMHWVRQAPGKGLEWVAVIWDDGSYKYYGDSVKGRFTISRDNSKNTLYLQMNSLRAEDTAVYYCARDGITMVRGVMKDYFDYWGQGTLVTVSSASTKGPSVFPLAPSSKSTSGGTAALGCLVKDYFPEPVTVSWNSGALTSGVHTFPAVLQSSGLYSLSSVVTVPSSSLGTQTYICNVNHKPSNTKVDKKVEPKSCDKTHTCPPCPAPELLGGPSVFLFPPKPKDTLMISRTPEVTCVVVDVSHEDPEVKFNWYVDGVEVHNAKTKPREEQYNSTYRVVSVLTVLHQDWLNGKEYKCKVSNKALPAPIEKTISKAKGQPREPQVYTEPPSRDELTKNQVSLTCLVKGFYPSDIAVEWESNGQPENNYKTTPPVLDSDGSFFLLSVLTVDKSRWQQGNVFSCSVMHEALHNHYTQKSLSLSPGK
anti-EGFR light chain: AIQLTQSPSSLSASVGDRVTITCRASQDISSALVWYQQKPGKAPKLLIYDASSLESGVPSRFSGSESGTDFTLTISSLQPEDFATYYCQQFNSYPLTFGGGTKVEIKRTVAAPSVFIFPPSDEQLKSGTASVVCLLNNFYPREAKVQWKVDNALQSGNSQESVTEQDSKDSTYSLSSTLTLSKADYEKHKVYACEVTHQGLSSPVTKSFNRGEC
anti-cMet control heavy chain (cMet-2 Fc): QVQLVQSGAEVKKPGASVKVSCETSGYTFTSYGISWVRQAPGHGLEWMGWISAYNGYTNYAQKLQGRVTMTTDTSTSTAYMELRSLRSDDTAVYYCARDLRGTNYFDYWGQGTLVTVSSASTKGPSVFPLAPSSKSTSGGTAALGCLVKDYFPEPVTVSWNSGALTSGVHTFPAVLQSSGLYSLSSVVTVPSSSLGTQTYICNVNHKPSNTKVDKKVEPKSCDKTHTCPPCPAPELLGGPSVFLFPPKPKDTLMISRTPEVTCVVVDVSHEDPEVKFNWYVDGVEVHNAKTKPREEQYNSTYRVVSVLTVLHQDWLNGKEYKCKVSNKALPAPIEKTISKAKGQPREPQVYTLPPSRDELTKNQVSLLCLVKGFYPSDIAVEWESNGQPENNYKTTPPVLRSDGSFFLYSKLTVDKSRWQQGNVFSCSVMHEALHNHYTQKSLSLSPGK
anti-cMet control light chain: DIQMTQSPSSVSASVGDRVTITCRASQGISNWLAWFQHKPGKAPKLLIYAASSLLSGVPSRFSGSGSGTDFTLTISSLQPEDFATYYCQQANSFPITFGQGTRLEIKRTVAAPSVFIFPPSDEQLKSGTASVVCLLNNFYPREAKVQWKVDNALQSGNSQESVTEQDSKDSTYSLSSTLTLSKADYEKHKVYACEVTHQGLSSPVTKSFNRGEC
notes: also called control antibody; control molecule Amivantamab
IC50 [1]: 2.64 nM

B2: anti-c-MET antibody 136 (antibody, V domains shown)
VH: EVQLQESGPGLVKPSETLSLTCTVSGGSVTSVNYYWKWIRQPPGKGLEWIGYISYSGNTNYNPSLKSRVTISVDTSKNQFSLKLSSVTAADTAVYYCVRAPYYYMDVWSKGTTVTVSS
VL: DIVMTQSPSSVSASVGDRVTITCRASQGISSWLAWYQQKPGKAPKLLIYAVSSLQSGVPSRFSGSGSGTDFTLTISSLQPEDFATYFCQQANSFPLTFGGGTKVEIK
notes: Candidate from yeast display screening, as tested in the ForteBio assay
Kd (human c-MET protein): 0.0293 nM | koff (human c-MET protein): 6.71e-06 s⁻¹ | kon (human c-MET protein): 229000 M⁻¹ s⁻¹ | Kd (monkey c-MET protein): 1.16 nM | koff (monkey c-MET protein): 0.000426 s⁻¹ | kon (monkey c-MET protein): 369000 M⁻¹ s⁻¹

B3: anti-c-MET antibody 187 (antibody, V domains shown)
VH: ELQLQESGPGLVKPSETLSLTCTVSGGSISSSSYYWGWIRQSPGKGLEWIGSRYYSGNTYYNPSLKSRVTMSVDTSKNQFSLKLRSVTAADTAVYYCARQVYDYWRDWGQGALVTVSS
VL: B2 VL with K45N, V51A, S53N, Q55P, D70V, F87Y, A91S
notes: as for B2
Kd (human c-MET protein): 1.68 nM | koff (human c-MET protein): 0.000369 s⁻¹ | kon (human c-MET protein): 220000 M⁻¹ s⁻¹ | Kd (monkey c-MET protein): 2.92 nM | koff (monkey c-MET protein): 0.000947 s⁻¹ | kon (monkey c-MET protein): 324000 M⁻¹ s⁻¹

B4: EGFRxMET-136 (bispecific antibody, human IgG1, kappa)
heavy 1: not shown
light 1: not shown
heavy 2: not shown
light 2: DIVMTQSPSSVSASVGDRVTITCRASQGISSWLAWYQQKPGKAPKLLIYAVSSLQSGVPSRFSGSGSGTDFTLTISSLQPEDFATYFCQQANSFPLTFGGGTKVEIKRTVAAPSVFIFPPSDEQLKSGTASVVCLLNNFYPREAKVQWKVDNALQSGNSQESVTEQDSKDSTYSLSSTLTLSKADYEKHKVYACEVTHQGLSSPVTKSFNRGEC
notes: 1+1 heterodimeric IgG1-type bispecific
IC50 [2]: 3.15 nM

B5: EGFRxMET-187 (bispecific antibody, human IgG1, kappa)
heavy 1: not shown
light 1: not shown
heavy 2: not shown
light 2: B4 light 2 with K45N, V51A, S53N, Q55P, D70V, F87Y, A91S
notes: as for B4
IC50 [3]: 2.9 nM

B6: EGFRxMET-136 Afu (bispecific antibody, human IgG1, kappa)
heavy 1: not shown
light 1: B4 light 2 with T129R, T178R, T180Q
heavy 2: not shown
light 2: DIQLTQSPSSLSASVGDRVTITCRASQDISSALVWYQQKPGKAPKLLIYDASSLESGVPSRFSGSESGTDFTLTISSLQPEDFATYYCQQFNSYPLTFGGGTKVEIKRTVAAPSVFIFPPSDEELKSGTASVQCLLNNFYPREAKVQWKVDNALQSGNSQESVTEQDSKDSTYSLSSELTLSKADYEKHKVYACEVTHQGLSSPVTKSFNRGEC
modifications: afucosylated glycan
EC50 [4]: 1.35 nM

B7: EGFRxMET-187 Afu (bispecific antibody, human IgG1, kappa)
heavy 1: not shown
light 1: not shown
heavy 2: not shown
light 2: B4 light 2 with K45N, V51A, S53N, Q55P, D70V, F87Y, A91S
modifications: afucosylated glycan
EC50 [5]: 1.05 nM | EC50 [6]: 1.46 nM
